Test results as given in US20190177431A1 (FUDAN UNIVERSITY, published 2019).
Where two headings read alike, the source gives them in different places.

T1: murine TF (B16-F10 cells) (murine, UniProt P20352 29-294)
T1 construct: whole, on cells
T1 sequence (looked up): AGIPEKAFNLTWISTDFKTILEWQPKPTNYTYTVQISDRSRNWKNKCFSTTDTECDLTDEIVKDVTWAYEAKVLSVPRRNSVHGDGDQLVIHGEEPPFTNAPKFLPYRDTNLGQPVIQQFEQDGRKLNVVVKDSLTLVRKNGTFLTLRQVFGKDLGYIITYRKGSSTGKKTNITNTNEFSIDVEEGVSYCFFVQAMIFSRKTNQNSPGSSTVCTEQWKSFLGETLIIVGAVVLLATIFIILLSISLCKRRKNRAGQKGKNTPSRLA


Tests used:
[1] = target: T2, human TF on the cell surface of tumor cells (human, UniProt P13726 33-295); assay: flow cytometry on U87MG cells
T2 construct: whole, on cells; Endogenous TF on TF-positive human tumor cell lines; also called cell surface TF
Description: (§1) The cells were washed with PBS twice to remove the unbound primary antibody, and the target cells were incubated with 200 μL PE-labeled secondary antibody (2 μg/mL) at 4° C. for 30 min. The cells were washed with PBS twice to remove the unbound secondary antibody, and finally the cells were re-suspended in 400 μL PBS.

[2] = target: T1, murine TF (B16-F10 cells); assay: flow cytometry on B16-F10 cells
Description: After preliminary screening, about 30 hybridoma cells were selected for secondary limiting dilution cloning, and then 6 antibodies were selected for large-scale expression and purification.

[3] = target: T2, human TF on the cell surface of tumor …; assay: flow cytometry on MDA-MB-231 cells
[4] = target: T2, human TF on the cell surface of tumor …; assay: cell-based or functional assay
[5] = target: T2, human TF on the cell surface of tumor …; assay: flow cytometry on BxPC-3 cells
Description: as §1

[6] = target: T3, extracellular domain of human TF protein (human, UniProt P13726 34-251); assay: ELISA, coated TF extracellular domain
T3 construct: range 34-251; Limits 34-251 are stated for the immunogen; also called the extracellular domain protein of TF; TF antigen
Description: (§2) The antigen (the extracellular domain protein of TF) was diluted to 0.5 μg/mL with a coating solution, and was used to coat an ELISA plate overnight, at 100 μL/well and 4° C. The excessive antigen was removed by washing. The plate was blocked with 2% BSA at room temperature for 2 h, and then each of the 3-fold serial diluted monoclonal antibodies was added at 100 μL/well, and was incubated for 2 h at room temperature. The unbound antibodies were removed by washing, and an appropriate concentration of horseradish peroxidase-labeled anti-mouse secondary antibody was added at 100 μL/well, and incubated for 1 h at room temperature. The unbound secondary antibody was removed by washing, TMB chromogenic solution was added, and the color was developed to an appropriate color depth. 2M H₂SO₄ was added at 50 μL/well, to stop the chromogenic reaction, the absorbance at 450 nm was then determined, and the data was analyzed.

[7] = target: T2, human TF on the cell surface of tumor …; assay: flow cytometry on MDA-MB-231 cells, antibody at 1 µg/mL
Description: as §1

[8] = target: T3, extracellular domain of human TF protein; assay: ELISA, coated TF extracellular domain; remark: listed apart in the source
Description: as §2
Firstly, the 20 humanized antibodies were determined for their affinity for the extracellular domain protein of TF by ELISA binding assay (The experimental method refers to Step \textcircled{4} of Example 1).

[9] = target: T2, human TF on the cell surface of tumor …; assay: flow cytometry on HCC1806 cells
[10] = target: T2, human TF on the cell surface of tumor …; assay: flow cytometry on MDA-MB-231 cells, antibody at 10 µg/mL; design: reference not given here
Description: as §1

Binder	EC50 [1]	binding result [2]	EC50 [3]	IC50 of inhibiting FXa production (BxPC-3 cells) [4]	IC50 of inhibiting FXa production (MDA-MB-231 cells) [4]	EC50 [5]	EC50 [6]	MFI [7]	EC50 [8]	EC50 [9]	MFI [10]
TF-mAb-SC1 (antibody, V domains shown) VH: QVQLQQPGAELVRPGASVKLSCKASGYSFISYWMNWVKQRPGQGLEWIGMIYPADSETRLNQKFKDKATLTVDKSSSTAYMQLSSPTSEDSAVYYCAREDYGSSDYWGQGTTLTVSS VL: EILLTQSPAIIAASPGEKVTITCSASSSVSYMNWYLQKPGSSPKIWIYGISNLASGVPARFSGSGSGTSFSFTINSMETEDVATYYCQQKSSFPWTFGGGTKLEIK	1.6 nM	no binding (tested: 10 µg/mL)	2.5 nM	9 nM	6.4 nM	2.6 nM	~0.019 nM	–	–	–	–
TF-mAb-H47 (antibody, V domains shown, Humanized) VH: QVQLVQSGAEVKKPGASVKVSCKASGYSFISYWMNWVRQAPGQGLEWIGMIYPADSETRLNQKFKDRATLTVDKSTSTAYMELSSLRSEDTAVYYCAREDYGSSDYWGQGTTVTVSS VL: EIVLTQSPDFQSVTPKEKVTITCSASSSVSYMNWYQQKPDQSPKIWIYGISNLASGVPSRFSGSGSGTDFTLTINSLEAEDAATYYCQQKSSFPWTFGGGTKVEIK	–	–	–	–	–	–	–	3000	0.013 nM	–	3150
TF-mAb-H48 (antibody, V domains shown, Humanized) VH: QVQLVQSGSELKKPGASVKVSCKASGYSFISYWMNWVRQAPGQGLEWIGMIYPADSETRLNQKFKDRAVLSVDKSVSTAYLQICSLKAEDTAVYYCAREDYGSSDYWGQGTTVTVSS VL: EIVLTQSPDFQSVTPKEKVTITCSASSSVSYMNWYQQKPDQSPKIWIYGISNLASGVPSRFSGSGSGTDFTLTINSLEAEDAATYYCQQKSSFPWTFGGGTKVEIK	–	–	–	–	–	–	–	2610	0.0153 nM	–	2900

Next, values leading:

EC50 [1]	binding result [2]	EC50 [3]	IC50 of inhibiting FXa production (BxPC-3 cells) [4]	IC50 of inhibiting FXa production (MDA-MB-231 cells) [4]	EC50 [5]	EC50 [6]	MFI [7]	EC50 [8]	EC50 [9]	MFI [10]	Binder
–	–	2.3 nM	–	–	–	~0.011 nM	3370	0.01 nM	2.1 nM	3540	TF-mAb-Ch (antibody, V domains shown, Variable regions of TF-mAb-SC1 cloned into vectors with human IgG1 heavy chain constant region and human kappa constant region; also called human-mouse chimeric antibody; chimeric antibody TF-mAb-Ch) VH: QVQLQQPGAELVRPGASVKLSCKASGYSFISYWMNWVKQRPGQGLEWIGMIYPADSETRLNQKFKDKATLTVDKSSSTAYMQLSSPTSEDSAVYYCAREDYGSSDYWGQGTTLTVSS VL: EILLTQSPAIIAASPGEKVTITCSASSSVSYMNWYLQKPGSSPKIWIYGISNLASGVPARFSGSGSGTSFSFTINSMETEDVATYYCQQKSSFPWTFGGGTKLEIK
–	–	–	–	–	–	–	3120	0.0119 nM	–	3410	TF-mAb-H46 (antibody, V domains shown, Humanized) VH: EVQLVQSGAEVKKPGESLKISCKGSGYSFTSYWMNWVKQMPGKGLEWMGMIYPADSETRLNQKFKDKATLSVDKSISTAYLQWSSLKASDTAMYYCAREDYGSSDYWGQGTTVTVSS VL: EIVLTQSPDFQSVTPKEKVTITCSASSSVSYMNWYQQKPDQSPKIWIYGISNLASGVPSRFSGSGSGTDFTLTINSLEAEDAATYYCQQKSSFPWTFGGGTKVEIK
